Biological target: T1, RB-C fusion protein (residues 701-928) (UniProt P06400)
T1 sequence: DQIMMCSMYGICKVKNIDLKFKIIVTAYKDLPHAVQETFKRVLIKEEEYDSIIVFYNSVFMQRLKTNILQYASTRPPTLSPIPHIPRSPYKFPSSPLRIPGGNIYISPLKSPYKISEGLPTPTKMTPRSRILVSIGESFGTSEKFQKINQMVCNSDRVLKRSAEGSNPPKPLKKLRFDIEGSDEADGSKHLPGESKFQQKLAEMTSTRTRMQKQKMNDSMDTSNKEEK

AMPK holoenzyme (α/β/γ heterotrimers)
nonradioactive in vitro kinase assay; phosphorylation monitored by immunoblot using phospho-Rb800/804 antibody: AMPK directly phosphorylated Rb at Ser804 and that this modification could be inhibited by the AMPK inhibitor, compound C

From patent US20100221748A1
